Data on 15 molecules can be found in US20190169286A1 (Chugai, published 2019).

As a reminder, the Kd is a measure of binding affinity in units of concentration. Read a low Kd as a tighter complex. What is called koff is the first-order rate constant of dissociation.

Assay [1] has as its target T1, human IL-8 (human, UniProt P10145 23-99, limits assumed).
T1 construct: also called hIL-8; hIL8
Nature of the assay: SPR Biacore T200, Protein A/G capture, pH 5.8, 37C.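 Also: antibodies captured by Protein A/G amine-coupled onto a CM4 sensor chip, with kinetic parameters derived using Biacore T200 Evaluation Software.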
Method: (§1) An appropriate amount of Protein A/G (PIERCE) was immobilized onto the Sensor chip CM4 (GE Healthcare) by the amine coupling method and the antibodies of interest were captured. […] To regenerate the sensor chip, 25 mM NaOH and 10 mM glycine-HCl (pH 1.5) were used. […] The BIACORE T200 Evaluation Software (GE Healthcare) was used to calculate each parameter.

Assay [2] addresses T1, human IL-8. Kind of assay: SPR Biacore T200, Protein A/G capture, pH 7.4, 40C. (In general: In SPR one partner is held on a chip, and binding of the other changes the refractive index at the surface.)
Method: as §1
In the next assay the target is T2, human FcRn (human, UniProt P55899 24-290; P61769 21-119, limits assumed).
T2 construct: also called hFcRn
Nature of the assay: SPR Biacore T100, Ab captured on Protein L, FcRn analyte, pH 6.0, 25C. As for the experimental part:
Antibodies containing VH3-IgG1m or an above-mentioned variant as the heavy chain and L(WT) (SEQ ID NO:1) as the light chain were produced by the method of Reference Example 2, and the binding activity toward human FcRn was evaluated as follows.
Kinetic analyses of human FcRn and each of the antibodies were carried out using BIACORE T100 (GE Healthcare). […] For the running buffer, 50 mM sodium phosphate, 150 mM NaCl, and 0.05% (w/v) Tween 20 at pH 6.0 was used, and the respective buffer was also used to dilute FcRn. […] All measurements were carried out at 25° C.

T2 sequence (P55899 24-290 limits assumed, chain 1 of 2): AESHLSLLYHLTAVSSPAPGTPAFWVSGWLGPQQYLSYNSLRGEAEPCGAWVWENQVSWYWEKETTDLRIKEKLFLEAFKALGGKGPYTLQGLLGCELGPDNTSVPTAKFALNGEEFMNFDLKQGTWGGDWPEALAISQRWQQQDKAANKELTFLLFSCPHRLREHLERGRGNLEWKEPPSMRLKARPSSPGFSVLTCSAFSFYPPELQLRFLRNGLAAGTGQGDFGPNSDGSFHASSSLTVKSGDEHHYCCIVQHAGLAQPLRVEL
T2 sequence (P61769 21-119 limits assumed, chain 2 of 2): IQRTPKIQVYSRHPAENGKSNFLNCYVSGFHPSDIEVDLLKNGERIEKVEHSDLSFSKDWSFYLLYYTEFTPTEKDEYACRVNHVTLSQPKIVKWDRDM
T1 sequence (P10145 23-99 limits assumed): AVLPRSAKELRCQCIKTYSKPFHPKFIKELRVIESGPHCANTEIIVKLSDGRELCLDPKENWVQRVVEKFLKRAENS

B1: H1032/L0442 (antibody, human IgG1, kappa, name in Kabat numbering, V domains shown)
VH: QVQLVESGGGLVQPGGSLRLSCAASGFTFDKYYLSWVRQAPGKGLEWVGLIRNKDNGYHPEYSASVKGRFTISRDDSKNSLYLTMSDLKTEDTAVYYCARENHRYDVELAYWGQGTLVTVSS
VL: DIQMTQSPSSLSASVGDRVTITCRASEIIYEYLAWYQQKPGKAPKLLIYKAKTHADGVPSRFSGSGSGTDFTFTISSLQPEDIATYYCKHHFGFPRTFGQGTKVEIKR
notes: L442 = L395 + S31E
As for B1, in the assay with human IL-8 [1], the Kd turned out to be 43 nM and the koff was 0.0059 s⁻¹. Further, the Kd with human IL-8 [2] stood at 0.078 nM.

B2: H1047/L0395 (antibody, human IgG1, kappa, name in Kabat numbering, V domains shown)
VH: QVQLVESGGGLVQPGGSLRLSCAASGFTFDKYYLSWVRQAPGKGLEWVGLIRNKDNGYTPEYSASVKGRFTISRDDSKNSLYLTMSDLKTEDTAVYYCARENHRYDVELAYWGQGTLVTVSS
VL: DIQMTQSPSSLSASVGDRVTITCRASEIIYSYLAWYQQKPGKAPKLLIYKAKTHADGVPSRFSGSGSGTDFTFTISSLQPEDIATYYCKHHFGFPRTFGQGTKVEIKR
As for B2, the figures for the Kd in the assay with human IL-8 [1] and with human IL-8 [2] were 47 nM and 0.095 nM, respectively. In the assay with human IL-8 [1], this molecule registered a koff of 0.006 s⁻¹.

B3: H1037/L0395 (antibody, human IgG1, kappa, name in Kabat numbering, V domains shown)
VH: QVQLVESGGGLVQPGGSLRLSCAASGFTFDKYYLSWVRQAPGKGLEWVGLIRNKDNYHHPEYSASVKGRFTISRDDSKNSLYLTMSDLKTEDTAVYYCARENHRYDVELAYWGQGTLVTVSS
VL: DIQMTQSPSSLSASVGDRVTITCRASEIIYSYLAWYQQKPGKAPKLLIYKAKTHADGVPSRFSGSGSGTDFTFTISSLQPEDIATYYCKHHFGFPRTFGQGTKVEIKR
In the assay with human IL-8 [1], B3 came in with a Kd of 70 nM and a koff of 0.015 s⁻¹. Further, the Kd with human IL-8 [2] is 0.094 nM.

B4: H1050/L0395 (antibody, human IgG1, kappa, name in Kabat numbering, V domains shown)
VH: QVQLVESGGGLVQPGGSLRLSCAASGFTFSEYYLSWVRQAPGKGLEWVGLIRNKDNYHTPEYSASVKGRFTISRDDSKNSLYLTMSDLKTEDTAVYYCARENHRYDVELAYWGQGTLVTVSS
VL: DIQMTQSPSSLSASVGDRVTITCRASEIIYSYLAWYQQKPGKAPKLLIYKAKTHADGVPSRFSGSGSGTDFTFTISSLQPEDIATYYCKHHFGFPRTFGQGTKVEIKR
On to B4, for which, in the assay with human IL-8 [1], binding was put at a Kd of 77 nM and the koff stood at 0.005 s⁻¹. Besides, the Kd in the assay with human IL-8 [2] came to 0.066 nM.

B5: H1040/L0395 (antibody, human IgG1, kappa, name in Kabat numbering, V domains shown)
VH: QVQLVESGGGLVQPGGSLRLSCAASGFTFSEYYLSWVRQAPGKGLEWVGLIRNKDNHHHPEYSASVKGRFTISRDDSKNSLYLTMSDLKTEDTAVYYCARENHRYDVELAYWGQGTLVTVSS
VL: DIQMTQSPSSLSASVGDRVTITCRASEIIYSYLAWYQQKPGKAPKLLIYKAKTHADGVPSRFSGSGSGTDFTFTISSLQPEDIATYYCKHHFGFPRTFGQGTKVEIKR
Regarding B5, in the assay with human IL-8 [1], the Kd is 240 nM and the koff stood at 0.046 s⁻¹. The molecule also gave a Kd with human IL-8 [2] of 0.26 nM.

B6: H1049/L0395 (antibody, human IgG1, kappa, name in Kabat numbering, V domains shown)
VH: QVQLVESGGGLVQPGGSLRLSCAASGFTFDKYYLSWVRQAPGKGLEWVGLIRNKDNYHTPEYSASVKGRFTISRDDSKNSLYLTMSDLKTEDTAVYYCARENHRYDVELAYWGQGTLVTVSS
VL: DIQMTQSPSSLSASVGDRVTITCRASEIIYSYLAWYQQKPGKAPKLLIYKAKTHADGVPSRFSGSGSGTDFTFTISSLQPEDIATYYCKHHFGFPRTFGQGTKVEIKR
In the assay with human IL-8 [1], B6 came in with a Kd of 38 nM and a koff of 0.004 s⁻¹. For the same molecule, the affinity in the assay with human IL-8 [2], expressed as Kd, was 0.025 nM.

B7: H1041/L0442 (antibody, human IgG1, kappa, name in Kabat numbering, V domains shown)
VH: QVQLVESGGGLVQPGGSLRLSCAASGFTFSEYYLSWVRQAPGKGLEWVGLIRNKDNGYHPEYSASVKGRFTISRDDSKNSLYLTMSDLKTEDTAVYYCARENHRYDVELAYWGQGTLVTVSS
VL: DIQMTQSPSSLSASVGDRVTITCRASEIIYEYLAWYQQKPGKAPKLLIYKAKTHADGVPSRFSGSGSGTDFTFTISSLQPEDIATYYCKHHFGFPRTFGQGTKVEIKR
notes: L442 = L395 + S31E
In the assay with human IL-8 [1], B7 had a Kd of 61 nM and an off-rate (koff) of 0.015 s⁻¹. The affinity with human IL-8 [2], expressed as Kd, was 0.12 nM.

B8: H1049/L0442 (antibody, human IgG1, kappa, name in Kabat numbering, V domains shown)
VH: QVQLVESGGGLVQPGGSLRLSCAASGFTFDKYYLSWVRQAPGKGLEWVGLIRNKDNYHTPEYSASVKGRFTISRDDSKNSLYLTMSDLKTEDTAVYYCARENHRYDVELAYWGQGTLVTVSS
VL: DIQMTQSPSSLSASVGDRVTITCRASEIIYEYLAWYQQKPGKAPKLLIYKAKTHADGVPSRFSGSGSGTDFTFTISSLQPEDIATYYCKHHFGFPRTFGQGTKVEIKR
notes: L442 = L395 + S31E
In the assay with human IL-8 [1], B8 registered a Kd of 33 nM and a koff of 0.0045 s⁻¹. This molecule had a Kd in the assay with human IL-8 [2] of 0.053 nM.

B9: H1041/L0395 (antibody, human IgG1, kappa, name in Kabat numbering, V domains shown)
VH: QVQLVESGGGLVQPGGSLRLSCAASGFTFSEYYLSWVRQAPGKGLEWVGLIRNKDNGYHPEYSASVKGRFTISRDDSKNSLYLTMSDLKTEDTAVYYCARENHRYDVELAYWGQGTLVTVSS
VL: DIQMTQSPSSLSASVGDRVTITCRASEIIYSYLAWYQQKPGKAPKLLIYKAKTHADGVPSRFSGSGSGTDFTFTISSLQPEDIATYYCKHHFGFPRTFGQGTKVEIKR
On to B9, for which the Kd with human IL-8 [1] stood at 71 nM; with human IL-8 [2], 0.08 nM. In the assay with human IL-8 [1], this molecule gave a koff of 0.013 s⁻¹.

B10: H1037/L0442 (antibody, human IgG1, kappa, name in Kabat numbering, V domains shown)
VH: QVQLVESGGGLVQPGGSLRLSCAASGFTFDKYYLSWVRQAPGKGLEWVGLIRNKDNYHHPEYSASVKGRFTISRDDSKNSLYLTMSDLKTEDTAVYYCARENHRYDVELAYWGQGTLVTVSS
VL: DIQMTQSPSSLSASVGDRVTITCRASEIIYEYLAWYQQKPGKAPKLLIYKAKTHADGVPSRFSGSGSGTDFTFTISSLQPEDIATYYCKHHFGFPRTFGQGTKVEIKR
notes: L442 = L395 + S31E
Consider B10, for which, in the assay with human IL-8 [1], binding was put at a Kd of 61 nM and the koff came out at 0.015 s⁻¹. The molecule also returned a Kd with human IL-8 [2] of 0.13 nM.

B11: H1050/L0442 (antibody, human IgG1, kappa, name in Kabat numbering, V domains shown)
VH: QVQLVESGGGLVQPGGSLRLSCAASGFTFSEYYLSWVRQAPGKGLEWVGLIRNKDNYHTPEYSASVKGRFTISRDDSKNSLYLTMSDLKTEDTAVYYCARENHRYDVELAYWGQGTLVTVSS
VL: DIQMTQSPSSLSASVGDRVTITCRASEIIYEYLAWYQQKPGKAPKLLIYKAKTHADGVPSRFSGSGSGTDFTFTISSLQPEDIATYYCKHHFGFPRTFGQGTKVEIKR
notes: L442 = L395 + S31E
On to B11, for which the values for the Kd with human IL-8 [1] and with human IL-8 [2] were 54 nM and 0.099 nM, respectively. Moreover, the koff with human IL-8 [1] was found to be 0.0076 s⁻¹.

B12: H1046/L0395 (antibody, human IgG1, kappa, name in Kabat numbering, V domains shown)
VH: QVQLVESGGGLVQPGGSLRLSCAASGFTFSEYYLSWVRQAPGKGLEWVGLIRNKDNYHHPEYSASVKGRFTISRDDSKNSLYLTMSDLKTEDTAVYYCARENHRYDVELAYWGQGTLVTVSS
VL: DIQMTQSPSSLSASVGDRVTITCRASEIIYSYLAWYQQKPGKAPKLLIYKAKTHADGVPSRFSGSGSGTDFTFTISSLQPEDIATYYCKHHFGFPRTFGQGTKVEIKR
As for B12, in the assay with human IL-8 [1], the dissociation constant Kd came to 160 nM and the koff was determined as 0.012 s⁻¹. This molecule had a Kd in the assay with human IL-8 [2] of 0.18 nM.

B13: VH3-F1168m / L(WT) (antibody)
heavy: QVQLQESGPGLVKPSETLSLTCAVSGHSISHDHAWSWVRQPPGEGLEWIGFISYSGITNYNPSLQGRVTISRDNSKNTLYLQMNSLRAEDTAVYYCARSLARTTAMDYWGEGTLVTVSSASTKGPSVFPLAPSSKSTSGGTAALGCLVKDYFPEPVTVSWNSGALTSGVHTFPAVLQSSGLYSLSSVVTVPSSSLGTQTYICNVNHKPSNTKVDKKVEPKSCDKTHTCPPCPAPELLGGPSVFLFPPKPKDTLMISRTPEVTCVVVDVSHEDPEVKFNWYVDGVEVHNAKTKPREEQYNSTYRVVSVLTVLHQDWLNGKEYKCKVSNKALPAPIEKTISKAKGQPREPQVYTLPPSREEMTKNQVSLTCLVKGFYPSDIAVEWESNGQPENNYKTTPPVLDSDGSFFLYSKLTVDKSRWQQGNVFSCSVMHEALHAHYTRKELSLSP
light: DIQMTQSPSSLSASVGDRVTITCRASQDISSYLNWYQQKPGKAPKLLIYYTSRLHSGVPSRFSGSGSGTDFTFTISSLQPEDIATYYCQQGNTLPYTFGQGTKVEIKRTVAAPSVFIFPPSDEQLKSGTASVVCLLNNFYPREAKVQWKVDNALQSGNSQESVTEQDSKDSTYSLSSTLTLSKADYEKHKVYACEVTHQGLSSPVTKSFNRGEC
notes: Fc: N434A/Q438R/S440E
As to B13, the Kd in the assay with human FcRn worked out at 410 nM.

B14: VH3-F1847m / L(WT) (antibody)
heavy: QVQLQESGPGLVKPSETLSLTCAVSGHSISHDHAWSWVRQPPGEGLEWIGFISYSGITNYNPSLQGRVTISRDNSKNTLYLQMNSLRAEDTAVYYCARSLARTTAMDYWGEGTLVTVSSASTKGPSVFPLAPSSKSTSGGTAALGCLVKDYFPEPVTVSWNSGALTSGVHTFPAVLQSSGLYSLSSVVTVPSSSLGTQTYICNVNHKPSNTKVDKKVEPKSCDKTHTCPPCPAPELLGGPSVFLFPPKPKDTLMISRTPEVTCVVVDVSHEDPEVKFNWYVDGVEVHNAKTKPREEQYNSTYRVVSVLTVLHQDWLNGKEYKCKVSNKALPAPIEKTISKAKGQPREPQVYTLPPSREEMTKNQVSLTCLVKGFYPSDIAVEWESNGQPENNYKTTPPVLDSDGSFFLYSKLTVDKSRWQQGNVFSCSVMHEALHAHTTRKELSLSP
light: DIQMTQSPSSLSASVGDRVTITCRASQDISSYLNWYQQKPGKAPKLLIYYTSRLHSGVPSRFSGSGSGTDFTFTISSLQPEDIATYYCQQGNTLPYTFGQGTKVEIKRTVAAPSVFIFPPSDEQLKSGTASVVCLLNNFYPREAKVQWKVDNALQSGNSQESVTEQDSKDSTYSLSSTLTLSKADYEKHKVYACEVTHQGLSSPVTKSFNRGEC
notes: Fc: N434A/Y436T/Q438R/S440E
Turning to B14, in the assay with human FcRn, binding was characterised by a dissociation constant (Kd) of 367 nM.

B15: VH3-F1848m / L(WT) (antibody)
heavy: QVQLQESGPGLVKPSETLSLTCAVSGHSISHDHAWSWVRQPPGEGLEWIGFISYSGITNYNPSLQGRVTISRDNSKNTLYLQMNSLRAEDTAVYYCARSLARTTAMDYWGEGTLVTVSSASTKGPSVFPLAPSSKSTSGGTAALGCLVKDYFPEPVTVSWNSGALTSGVHTFPAVLQSSGLYSLSSVVTVPSSSLGTQTYICNVNHKPSNTKVDKKVEPKSCDKTHTCPPCPAPELLGGPSVFLFPPKPKDTLMISRTPEVTCVVVDVSHEDPEVKFNWYVDGVEVHNAKTKPREEQYNSTYRVVSVLTVLHQDWLNGKEYKCKVSNKALPAPIEKTISKAKGQPREPQVYTLPPSREEMTKNQVSLTCLVKGFYPSDIAVEWESNGQPENNYKTTPPVLDSDGSFFLYSKLTVDKSRWQQGNVFSCSVMHEALHAHVTRKELSLSP
light: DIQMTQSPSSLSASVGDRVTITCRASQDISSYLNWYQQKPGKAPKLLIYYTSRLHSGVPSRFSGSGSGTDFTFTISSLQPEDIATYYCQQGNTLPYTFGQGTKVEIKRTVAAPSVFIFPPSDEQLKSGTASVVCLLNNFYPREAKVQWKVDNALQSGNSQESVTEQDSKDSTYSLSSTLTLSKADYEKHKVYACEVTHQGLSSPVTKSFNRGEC
notes: Fc: N434A/Y436V/Q438R/S440E
As for B15, binding with human FcRn was characterised by a dissociation constant (Kd) of 295 nM.
